In patent US20190040138A1 (AKESO BIOPHARMA, published 2019):
Residue numbers refer to the chain shown, from its start.

B1: humanized antibody 18A10 H2L2 (antibody, V domains shown)
VH: EVQLVQSGGGLVQPGGSLKLSCAASGFTFSSYGMSWVRQAPGKGLDWVATISGGGRDTYYPDSVKGRFTISRDNSKNNLYLQMNSLRAEDTALYYCARQKGEAWFAYWGQGTLVTVSS
VL: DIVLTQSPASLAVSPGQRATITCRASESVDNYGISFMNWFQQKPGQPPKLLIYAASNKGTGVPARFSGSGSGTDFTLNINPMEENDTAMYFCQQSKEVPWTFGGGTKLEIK
notes: also called H2L2 antibody
B2: humanized antibody 18A10 H1L1 (antibody, V domains shown)
VH: B1 VH with A40T, G42E
VL: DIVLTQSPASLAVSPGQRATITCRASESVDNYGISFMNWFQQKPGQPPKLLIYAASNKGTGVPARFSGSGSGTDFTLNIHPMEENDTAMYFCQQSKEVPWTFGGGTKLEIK
notes: also called H1L1 antibody
B3: humanized antibody 18A10 H3L3 (antibody, V domains shown)
VH: B1 VH with N78T, L93V
VL: DIVLTQSPASLAVSPGQRATITCRASESVDNYGISFMNWYQQKPGQPPKLLIYAASNKATGVPARFSGSGSGTDFTLNINPMEANDTAVYFCQQSKEVPWTFGGGTKLEIK
notes: also called H3L3 antibody

What was measured:
[1] = target: T1, PD-1 antigen stably expressed on the surface of BB007 cells (UniProt Q15116 25-288, limits assumed); test: flow cytometry on BB007 cells; antibody 0.1 nM
T1 construct: whole, on cells; also called target protein PD-1 on the surface of the BB007 cell
T1 sequence (Q15116 25-288 limits assumed): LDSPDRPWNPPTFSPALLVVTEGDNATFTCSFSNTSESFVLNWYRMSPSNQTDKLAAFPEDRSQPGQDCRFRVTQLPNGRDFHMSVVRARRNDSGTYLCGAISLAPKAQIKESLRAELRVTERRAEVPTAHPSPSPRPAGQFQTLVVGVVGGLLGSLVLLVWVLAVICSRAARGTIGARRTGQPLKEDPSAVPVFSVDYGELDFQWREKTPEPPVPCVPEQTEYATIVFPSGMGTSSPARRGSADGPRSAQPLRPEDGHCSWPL
Description: (§1) The binding efficiencies of H1L1, H2L2 and H3L3 antibodies to PD-1 antigen stably expressed on the surface of cells (named as BB007 cells) were determined by flow cytometry. The BB007 cells were obtained by routine trypsin digestion, and then washed with PBS buffer once, followed by dividing into several tubes, with 2×10⁵ cells per tube. After dilution into concentrations of 20 nM, 10 nM, 5 nM, 1 nM, 0.1 nM and 0 nM with the PBS buffer containing 1% BSA for each of the H1L1, H2L2 and H3L3 antibodies, individual antibodies in a volume of 100 μl were added into individual tubes and incubated on ice for 1 hour. After the mixture was washed with the PBS buffer once, 100 μl FITC-Goat-Anti-Human IgG (in 1:500 dilution) was added for each tube and incubated on ice for 1 hour, followed by addition of 300 μl the PBS buffer for detecting fluorescence signal with a FITC channel on the flow cytometer.

[2] = target: T2, PD-1-mIgGFc fusion protein; test: ELISA on coated PD-1-mFc; antibody 1 µg/ml; replicate 2
T2 construct: also called PD-1-mFc; PD-1-mIgGFc antigen
T2 sequence (chain, as listed by the source limits assumed): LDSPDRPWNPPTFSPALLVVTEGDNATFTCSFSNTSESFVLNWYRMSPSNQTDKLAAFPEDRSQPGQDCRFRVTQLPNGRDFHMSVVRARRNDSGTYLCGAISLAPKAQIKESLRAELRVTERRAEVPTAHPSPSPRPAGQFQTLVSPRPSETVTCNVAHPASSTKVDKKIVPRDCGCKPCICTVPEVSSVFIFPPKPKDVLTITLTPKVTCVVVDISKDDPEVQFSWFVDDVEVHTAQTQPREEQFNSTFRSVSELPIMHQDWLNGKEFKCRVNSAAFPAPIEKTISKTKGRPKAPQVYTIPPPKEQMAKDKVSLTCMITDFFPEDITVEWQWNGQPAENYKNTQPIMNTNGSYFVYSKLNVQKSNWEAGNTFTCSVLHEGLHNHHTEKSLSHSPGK
Description: (§2) An ELISA plate was coated with PD-1-mFc antigen in a concentration of 0.5 μg/ml (50 μl per well) by incubation at 4° C. overnight.
(§3) After the ELISA plate was washed with the PBST buffer for three times and gently patted to dryness again, TMB as a developer in 50 μl per well was added for incubation at room temperature for 5 to 10 minutes.
(§4) The absorbance of solution in each well was measured with the microplate reader under a wavelength of 450 nm.

[3] = target: T2, PD-1-mIgGFc fusion protein; test: ELISA on coated PD-1-mFc; antibody 1 µg/ml diluted 1:27; replicate 2
Description: as §2, §3, §4

[4] = target: T2, PD-1-mIgGFc fusion protein; test: ELISA on coated PD-1-mFc; antibody 1 µg/ml diluted 1:81; replicate 1
Description: as §2
(§5) The ELISA plate coated with the PD-1-mFc antigen was blocked with 1% BSA in the PBS buffer at 37° C. for 2 hours, and washed with 1×PBST buffer containing 1% Tween-20 for three times, with gently patting to dryness.
as §4

[5] = target: T2, PD-1-mIgGFc fusion protein; test: competitive ELISA on coated PD-1-mIgGFc; competitor PDL1-mIgG2aFc
Description: (§6) A 96-well ELISA plate was coated with PD-1-mIgGFc antigen in a concentration of 0.5 μg/ml (50 μl per well) by incubation at 4° C. overnight.
(§7) The 18A10 H1L1, 18A10 H2L2 and 18A10 H3L3 antibodies each were diluted from 3 μg/ml in series by 1:3, with 7 gradient antibody solutions obtained for each antibody. The 7 gradient antibody solutions for each antibody and the blank PBS control (50 μl per well) were respectively added into the blocked 96-well ELISA plate for incubation at room temperature for 10 minutes.

[6] = target: T2, PD-1-mIgGFc fusion protein; test: ELISA on coated PD-1-mFc; antibody 1 µg/ml diluted 1:9; replicate 1
Description: as §2, §3, §4

[7] = target: T2, PD-1-mIgGFc fusion protein; test: competitive ELISA on coated PD-1-mIgGFc; competitor PDL1-mIgG2aFc 0.3 µg/ml; antibody 1.5 µg/ml diluted 1:27; replicate 1
Description: as §6, §7
(§8) After the 96-well ELISA plate was washed with the PBST buffer for three times and gently patted to dryness, goat anti-mouse IgG-HRP (H+L) as a secondary antibody in 1:5000 dilution (50 μl per well) was added for incubation at 37° C. for 1 hour.

[8] = target: T2, PD-1-mIgGFc fusion protein; test: competitive ELISA on coated PD-1-mIgGFc; competitor PDL1-mIgG2aFc 0.3 µg/ml; antibody 1.5 µg/ml; replicate 2
Description: as §6, §7, §4

[9] = target: T2, PD-1-mIgGFc fusion protein; test: competitive ELISA on coated PD-1-mIgGFc; competitor PDL1-mIgG2aFc 0.3 µg/ml; antibody 1.5 µg/ml diluted 1:729; replicate 1
Description: as §6, §7, §8

[10] = target: T2, PD-1-mIgGFc fusion protein; test: ELISA on coated PD-1-mFc; antibody 1 µg/ml diluted 1:729; replicate 1
Description: as §2, §3, §4

[11] = target: T2, PD-1-mIgGFc fusion protein; test: ELISA on coated PD-1-mFc; antibody 1 µg/ml diluted 1:27; replicate 1
Description: as §2, §3, §4

[12] = target: T2, PD-1-mIgGFc fusion protein; test: competitive ELISA on coated PD-1-mIgGFc; competitor PDL1-mIgG2aFc 0.3 µg/ml; antibody 1.5 µg/ml diluted 1:243; replicate 2
Description: as §6, §7, §8

[13] = target: T2, PD-1-mIgGFc fusion protein; test: ELISA on coated PD-1-mFc; antibody 1 µg/ml diluted 1:729; replicate 2
Description: as §2, §3, §4

[14] = target: T1, PD-1 antigen stably expressed on the …; test: flow cytometry on BB007 cells; antibody 5 nM
Description: as §1

[15] = target: T1, PD-1 antigen stably expressed on the …; test: flow cytometry on BB007 cells
Description: as §1

[16] = target: T2, PD-1-mIgGFc fusion protein; test: competitive ELISA on coated PD-1-mIgGFc; competitor PDL1-mIgG2aFc 0.3 µg/ml; antibody 1.5 µg/ml diluted 1:81; replicate 1
Description: as §6, §7, §4

[17] = target: T2, PD-1-mIgGFc fusion protein; test: competitive ELISA on coated PD-1-mIgGFc; competitor PDL1-mIgG2aFc 0.3 µg/ml; antibody 1.5 µg/ml diluted 1:9; replicate 1
Description: as §6, §7, §8

[18] = target: T2, PD-1-mIgGFc fusion protein; test: ELISA on coated PD-1-mFc; antibody 1 µg/ml diluted 1:243; replicate 2
Description: as §2, §5, §4

[19] = target: T1, PD-1 antigen stably expressed on the …; test: flow cytometry on BB007 cells; antibody 20 nM
Description: as §1

[20] = target: T2, PD-1-mIgGFc fusion protein; test: ELISA on coated PD-1-mFc; antibody 1 µg/ml diluted 1:243; replicate 1
Description: as §2, §3, §4

Row | Binder | fluorescence intensity [1] | absorbance at 450 nm [2] | absorbance at 450 nm [3] | absorbance at 450 nm [4] | EC50 [5] [nM] | absorbance at 450 nm [6] | absorbance at 450 nm (competition) [7] | absorbance at 450 nm (competition) [8] | absorbance at 450 nm (competition) [9] | absorbance at 450 nm [10] | absorbance at 450 nm [11] | absorbance at 450 nm (competition) [12] | absorbance at 450 nm [13] | fluorescence intensity [14] | EC50 [15] [nM] | absorbance at 450 nm (competition) [16] | absorbance at 450 nm (competition) [17] | absorbance at 450 nm [18] | fluorescence intensity [19] | absorbance at 450 nm [20]
1 | B1 | 19.1 | 2.43 | 1.63 | 1.04 | 0.838 | 2.18 | 0.951 | 0.102 | 1.2 | 0.226 | 1.78 | 1.21 | 0.224 | 321 | 1.59 | 1.09 | 0.474 | 0.475 | 329 | 0.545
2 | B2 | 19 | 2.32 | 1.65 | 0.883 | 0.992 | 1.96 | 1.06 | 0.107 | 1.35 | 0.186 | 1.62 | 1.21 | 0.163 | 252 | 3.38 | 1.29 | 0.625 | 0.431 | 358 | 0.45
3 | B3 | 21.2 | 2.44 | 1.5 | 0.928 | 1.19 | 1.95 | 1 | 0.102 | 1.28 | 0.2 | 1.58 | 1.21 | 0.185 | 343 | 1.68 | 1.09 | 0.7 | 0.377 | 367 | 0.432
